Reference: article PMC9561264, “Direct hOGG1-Myc interactions inhibit hOGG1 catalytic activity and recruit Myc to its promoters under oxidative stress”

B1: oxoG 48 bp (EMSA/FP) (dsDNA)
DNA 1: GCATGCCTCGAGTCTAGAGGTACCAGATCTGATCCTCTAGAGTCGACC
DNA 2: GGTCGACTCTAGAGGATCAGATCTGGTACCTCTAGACTCGAGGCATGC
modifications: 8-oxoguanine at position 10 of strand 1 (written G)
B2: undamaged (nsp) 48 bp (dsDNA)
DNA 1: B1 DNA 1
DNA 2: B1 DNA 2

How the values were obtained:
hOGG1 wild type;c-Myc [1] = biological target: T1, hOGG1 wild type;c-Myc (human;human?, UniProt O15527;P01106 1-345;16-454, |); assay: EMSA; 300 nM each; oxidising and reducing (less stable reducing); FP at 25°C with 5 nM labelled DNA; EMSA room temp 30 min, 15% native PAGE 0.5x TBE 4°C; interaction buffer 20 mM Tris-HCl pH 7.6, 200 mM NaCl (Fig. S12); reducing (5 mM DTT in EMSA) or oxidising (pre-oxidised hOGG1); settings: protein: recombinant;commercial; tags: N-terminal His6 (removed by protease where required);GST; quantum dot in E-box AFM; label: 5' AF647 (FP) or Cy3 (EMSA) on bottom strand; blunt
T1 sequence (O15527 whole entry, chain 1 of 2): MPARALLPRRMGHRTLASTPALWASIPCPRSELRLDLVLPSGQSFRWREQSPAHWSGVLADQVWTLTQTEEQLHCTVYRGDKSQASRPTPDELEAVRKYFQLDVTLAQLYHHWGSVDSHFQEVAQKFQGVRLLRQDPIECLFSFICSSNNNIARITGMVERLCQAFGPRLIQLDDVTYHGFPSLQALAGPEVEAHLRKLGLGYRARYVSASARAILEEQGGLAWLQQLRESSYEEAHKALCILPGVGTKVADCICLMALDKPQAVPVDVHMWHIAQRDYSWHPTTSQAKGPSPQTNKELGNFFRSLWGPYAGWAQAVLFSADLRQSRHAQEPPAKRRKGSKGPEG
T1 sequence (P01106 16-454, chain 2 of 2): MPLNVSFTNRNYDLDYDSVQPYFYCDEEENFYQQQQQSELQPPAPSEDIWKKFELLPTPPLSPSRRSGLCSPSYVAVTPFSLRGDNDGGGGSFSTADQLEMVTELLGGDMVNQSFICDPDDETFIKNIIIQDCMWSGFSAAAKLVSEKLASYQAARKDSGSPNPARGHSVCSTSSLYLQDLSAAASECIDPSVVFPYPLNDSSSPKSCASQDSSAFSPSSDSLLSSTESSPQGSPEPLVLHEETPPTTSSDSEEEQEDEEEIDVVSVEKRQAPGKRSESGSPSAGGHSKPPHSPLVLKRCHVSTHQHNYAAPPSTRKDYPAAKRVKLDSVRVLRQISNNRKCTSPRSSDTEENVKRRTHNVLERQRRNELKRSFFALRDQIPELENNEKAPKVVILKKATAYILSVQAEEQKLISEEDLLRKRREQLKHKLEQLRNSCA

hOGG1 C28A [2] = biological target: T2, hOGG1 C28A (human, UniProt O15527 1-345, C28A); assay: fluorescence polarisation; reducing; FP at 25°C with 5 nM labelled DNA; EMSA room temp 30 min, 15% native PAGE 0.5x TBE 4°C; interaction buffer 20 mM Tris-HCl pH 7.6, 200 mM NaCl (Fig. S12); reducing (5 mM DTT in EMSA) or oxidising (pre-oxidised hOGG1); settings: protein: recombinant; tags: N-terminal His6 (removed where required); label: 5' AF647 (FP) or Cy3 (EMSA) on bottom strand; blunt
T2 sequence (O15527 whole entry C28A): as the sequence (O15527 whole entry, chain 1 of 2) above, with C28A counted along it

hOGG1 K249Q [3] = biological target: T3, hOGG1 K249Q (human, UniProt O15527 1-345, K249Q); assay: as above; settings: protein: recombinant; tags: N-terminal His6 (removed where required); label: 5' AF647 (FP) or Cy3 (EMSA) on bottom strand; blunt
T3 sequence (O15527 whole entry K249Q): as the sequence (O15527 whole entry, chain 1 of 2) above, with K249Q counted along it

hOGG1 C253A = hOGG1 C253A (human, UniProt O15527 1-345, C253A); assay: as above; settings: protein: recombinant; tags: N-terminal His6 (removed where required); label: 5' AF647 (FP) or Cy3 (EMSA) on bottom strand; blunt
hOGG1 C253A, sequence (O15527 whole entry C253A): as the sequence (O15527 whole entry, chain 1 of 2) above, with C253A counted along it

hOGG1 C28A [4] = biological target: T2, hOGG1 C28A; assay: fluorescence polarisation; oxidising; FP at 25°C with 5 nM labelled DNA; EMSA room temp 30 min, 15% native PAGE 0.5x TBE 4°C; interaction buffer 20 mM Tris-HCl pH 7.6, 200 mM NaCl (Fig. S12); reducing (5 mM DTT in EMSA) or oxidising (pre-oxidised hOGG1); settings: protein: recombinant; tags: N-terminal His6 (removed where required); label: 5' AF647 (FP) or Cy3 (EMSA) on bottom strand; blunt
hOGG1 K249Q [5] = biological target: T3, hOGG1 K249Q; assay: as above; settings: protein: recombinant; tags: N-terminal His6 (removed where required); label: 5' AF647 (FP) or Cy3 (EMSA) on bottom strand; blunt
hOGG1 wild type;c-Myc [6] = biological target: T1, hOGG1 wild type;c-Myc; assay: EMSA; less stable under reducing conditions; FP at 25°C with 5 nM labelled DNA; EMSA room temp 30 min, 15% native PAGE 0.5x TBE 4°C; interaction buffer 20 mM Tris-HCl pH 7.6, 200 mM NaCl (Fig. S12); reducing (5 mM DTT in EMSA) or oxidising (pre-oxidised hOGG1); settings: protein: recombinant;commercial; tags: N-terminal His6 (removed by protease where required);GST; quantum dot in E-box AFM; label: 5' AF647 (FP) or Cy3 (EMSA) on bottom strand; blunt

| Binder | binding result (hOGG1 wild type;c-Myc [1]) | Kd (hOGG1 C28A [2]) [nM] | Kd (hOGG1 K249Q [3]) [nM] | Kd (hOGG1 C253A) [nM] | Kd (hOGG1 C28A [4]) [nM] | Kd (hOGG1 K249Q [5]) [nM] | binding result (hOGG1 wild type;c-Myc [6]) |
| --- | --- | --- | --- | --- | --- | --- | --- |
| B1 | binds | 65 ± 8 | 42 ± 3 | 99 ± 24 | 61 ± 11 | 95 ± 5 | – |
| B2 | – | – | – | – | – | – | binds |
